According to patent publication US20160139118A1, “NOVEL ASSAY” (GLAXOSMITHKLINE INTELLECTUAL PROPERTY (NO.2) LIMITED, priority 2013, published 2016):
Each block holds one molecule with its values, some of them ahead of it.

Legend:
[1] = biological target: Complement C3b (Complement Technology) (human) (UniProt P01024); assay: cell-based or functional assay
[2] = biological target: T1, BAM (Homo sapiens, UniProt P05067); assay: Effect of treating agents on BAM inhibitory activity in cofactor assay; format: biochemical; settings: 1 μg/mL CFI, 10 μM BAM, 37° C. 40 min with agent; then 80 μg/mL CFH and C3b
T1 construct: Beta amyloid recombinant peptide (1-42) (Ultra Pure, TFA Form) was purchased from Covance; purchased Covance
T1 sequence (P05067 672-713 limits assumed): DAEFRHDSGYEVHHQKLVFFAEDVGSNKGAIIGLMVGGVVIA
Procedure: (§1) FIG. 11 Effect of Tween 20, Triton X-100 and Guanidine on BAM Activity. The effect of Tween 20, Triton X-100, and Guanidine on the activity of BAM was tested in the cofactor assay, where 1 μg/mL of CFI and 10 μM BAM was incubated at 37° C. for 40 min in the presence of the treating agents, then 80 μg/mL CFH and 80 μg/mL C3b was added and the reactions were lasted for 1 hr 20 min at 37° C. The iC3b concentration in the reaction was then measured using the ELISA method.
(§2) As shown in Section 3.10, mouse isotype control IgGs, especially mIgG2b, caused significant background in terms of increasing CFI bioactivity by potential interaction with BAM at the level of the hinge. To reduce such an effect, multiple agents such as Tween 20, Triton X-100, Guanidine and human serum albumin were tested in the cofactor assays to see if they will interfere with CFI bioactivity or BAM activity first. […] However, the effect didn't seem to be differential (FIG. 11). Taken together, none of the agents tested so far could resolve the IgG BAM binding issue. Lastly, another strategy was tested by reversing the order of addition of the reagents. Normally, BAM and anti-BAM antibody were incubated first, then CFI was added to the mixture, CFH and C3b was added last. […]

[3] = biological target: T2, CFI (Homo sapiens, UniProt P05156); assay: Effect of treating agents on CFI bioactivity in cofactor assay; format: biochemical; settings: 1 μg/mL CFI, 10 μM BAM, 37° C. 40 min with agent; then 80 μg/mL CFH and C3b
T2 construct: purified serum CFI protein which has been successfully used in cofactor assays; purchased Complement Technology Inc (Tyler, Tex.); host or cells: human serum
T2 sequence (P05156 19-335 limits assumed): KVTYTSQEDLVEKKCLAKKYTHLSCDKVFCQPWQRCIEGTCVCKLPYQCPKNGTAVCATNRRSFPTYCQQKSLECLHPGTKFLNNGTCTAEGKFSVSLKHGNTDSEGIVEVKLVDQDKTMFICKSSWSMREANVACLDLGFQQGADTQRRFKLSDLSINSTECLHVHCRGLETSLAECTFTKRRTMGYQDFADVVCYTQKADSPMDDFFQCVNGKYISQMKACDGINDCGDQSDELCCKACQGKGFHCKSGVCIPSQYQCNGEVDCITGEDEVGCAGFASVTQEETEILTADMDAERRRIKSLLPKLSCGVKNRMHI
T2 sequence (P05156 340-583 limits assumed): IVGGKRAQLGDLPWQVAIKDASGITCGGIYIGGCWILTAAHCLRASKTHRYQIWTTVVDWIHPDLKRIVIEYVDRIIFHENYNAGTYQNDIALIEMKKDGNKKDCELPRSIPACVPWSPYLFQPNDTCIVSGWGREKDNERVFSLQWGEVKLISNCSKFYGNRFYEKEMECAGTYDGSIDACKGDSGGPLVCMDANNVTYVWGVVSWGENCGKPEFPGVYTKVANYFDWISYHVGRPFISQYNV
Procedure: as §1, §2

[4] = biological target: Complement C3b (Complement Technology), P01024
[5] = biological target: T3, C3b (Homo sapiens, UniProt P01024); assay: Cofactor assay of bioactivity of purified and recombinant CFI; format: biochemical; settings: for estimated EC50 of CFI (95% limits in parentheses): three experiments in triplicate, CFH and C3b, 37° C. 1 hr
T3 construct: Factor I, Factor H, C3b, and iC3b proteins were purchased; purchased Complement Technology Inc (Tyler, Tex.)
Procedure: The bioactivity measurements were conducted in triplicate and run on three occasions. Both CFI stock solutions were diluted in a 1/3 log series into 8 substock solutions starting at […] CFI. To maintain the CFI bioactivity in low concentration, 10 μg/mL CFH was used. Cofactor assays were set up by mixing […] of 2×CFI substock solutions with […] of CFH and C3b 2× mixture at a final concentration of […] for each reaction. The reaction mixtures were incubated at 37° C. for 1 hr, then the iC3b production in reactions was evaluated by a specific ELISA.
In the assay, 1 mU of CFI bioactivity is defined as the inverse of the amount of CFI that generates half of the maximal concentration of iC3b that can be produced (EC50). To obtain CFI bioactivity of a sample the following calculation is applied: 1/(EC50 of CFI in μg). This equation will result in CFI bioactivity levels expressed as U/μg of CFI. […] The model fitted to the data also predicted the EC50 recombinant to purified ratio.
This value provides the amount of CFI in ng that generates ½ the maximal amount of iC3b. Dividing these amounts by 1000 we convert the numbers to μg.

[6] = biological target: T3, C3b; assay: CFI dose response in cofactor assay (conversion of C3b into iC3b); format: biochemical
Procedure: A mixture of CFH (10-80 μg/mL) and C3b (80-150 μg/mL) was added into the tubes containing the CFI or BAM/CFI mixture. After a 30 minute-incubation at 37° C., the reaction mixtures were directly diluted into Assay Buffer and used for ELISA detection of iC3b. The detailed procedures other than indicated below were performed following the instruction provided with the ELISA kit. The diluted reaction mixtures and standards were applied to the 8-well strips at 60 μL per well and incubated at RT for 30 min. After washing 5 times in a plate washer with an in house-made washing buffer (10 mM Tris, 60 mM NaCl, 0.1% Tween 20, pH7.2), the 8-well strips were loaded with 50 μL of the HRP-anti-human iC3b conjugates per well and incubated at RT for 30 min. At the end of incubation, the 8-well strips were washed in the plate washer 5 times and incubated with 100 μL of the HRP substrates provided in the kit for additional 30 min. The reaction was stopped by addition of 50 μL Stop Buffer. The absorption at 405 nm was measured within 10 minutes. […] To answer these questions, a CFI dose response study was conducted where CFI was tested in a range of 10 ng/mL to 30 μg/mL in the presence or absence of 200 μM BAM1-42 (Lot 2, aged for 7 days without sonication) in the cofactor assay. […]

CFI bioactivity (inverse of EC50 in µg) [1]: 1640 U/µg of CFI | EC50 of CFI in cofactor assay (iC3b generation, 80 CFH and C3b, 1 hr), three experiments [1]: 60.8 ng/mL | EC50 recombinant to purified ratio [1]: 1.8
Molecule: Recombinant complement factor I (GSK) (from UniProt P05156 19-583) (enzyme)

effect on CFI bioactivity (in words) [3]: didn't affect CFI bioactivity
Molecule: Triton X-100
effect on inhibitory activity of BAM (in words) [2]: abolished the inhibitory activity of BAM completely

effect on inhibitory activity of BAM (in words) [2]: significantly reduced | effect on CFI bioactivity (in words) [3]: significantly reduced
Molecule: N=C(N)N [Guanidine]

EC50 recombinant to purified ratio ([5]; model fitted to data of three experiments, P<0.001 vs 1): 1.8 (1.5-2.2) | times lower bioactivity than material purified from serum ([5]; overall result): approximately 2 times | estimated EC50 of CFI (95% limits in parentheses) [5]: 60.8 (21.6-168.0) ng/ml
B2: recombinant CFI: CFI generated by recombinant means (GSK) (protein)
chain: KVTYTSQEDLVEKKCLAKKYTHLSCDKVFCQPWQRCIEGTCVCKLPYQCPKNGTAVCATNRRSFPTYCQQKSLECLHPGTKFLNNGTCTAEGKFSVSLKHGNTDSEGIVEVKLVDQDKTMFICKSSWSMREANVACLDLGFQQGADTQRRFKLSDLSINSTECLHVHCRGLETSLAECTFTKRRTMGYQDFADVVCYTQKADSPMDDFFQCVNGKYISQMKACDGINDCGDQSDELCCKACQGKGFHCKSGVCIPSQYQCNGEVDCITGEDEVGCAGFASVTQEETEILTADMDAERRRIKSLLPKLSCGVKNRMHIRRKRIVGGKRAQLGDLPWQVAIKDASGITCGGIYIGGCWILTAAHCLRASKTHRYQIWTTVVDWIHPDLKRIVIEYVDRIIFHENYNAGTYQNDIALIEMKKDGNKKDCELPRSIPACVPWSPYLFQPNDTCIVSGWGREKDNERVFSLQWGEVKLISNCSKFYGNRFYEKEMECAGTYDGSIDACKGDSGGPLVCMDANNVTYVWGVVSWGENCGKPEFPGVYTKVANYFDWISYHVGRPFISQYNV

estimated EC50 of CFI (95% limits in parentheses) [5]: 32.6 (9.3-108.8) ng/ml
B4: purified CFI: CFI purified from serum (CompTech) (protein)
chain: B2 chain

Further lines, the molecule ahead of its results:

Molecule: Complement factor I, purified human serum protein (Complement Technology) (from UniProt P05156 19-583) (enzyme)
CFI bioactivity (inverse of EC50 in µg) [1]: 3070 U/µg of CFI | EC50 of CFI in cofactor assay (conversion of C3b into iC3b, with CFH), PBS control [1]: 686 ng/mL | EC50 of CFI in cofactor assay (iC3b generation, 80 CFH and C3b, 1 hr), three experiments [1]: 32.6 ng/mL

B1: Complement factor I, purified human serum protein (Complement Technology) (protein)
chain: B2 chain
amount of CFI needed to cleave 50% of the available C3b (re-analysis, 4-parameter logistic) [4]: The amount of CFI needed to cleave 50% of the available C3b was approximately 632 ng/ml

B3: CFI: Complement factor I protein purchased from Complement Technology Inc (protein)
chain: B2 chain
EC50 of CFI (PBS control, no BAM) ([6]; CFI 10 ng/mL to 30 μg/mL, absence of BAM1-42): 686 ng/mL | amount of CFI needed to cleave 50% of the available C3b ([6]; no BAM, reanalysis with reparametrized 4-parameter logistic equation): approximately 632 ng/ml

B5: Mouse plasma complement factor I (protein)
chain: RSPSASDLPQEELVDQKCLLQKYTHRSCNKVFCQPWQRCIEGTCICKLPYQCPRAGTPVCAMNGRSYPTYCHQKSFECLHPEIKFSHNGTCAAEGKFNVSLIYGRTKTEGLVQVKLVDQDERMFICKNSWSMAEANVACVDLGFPLGVRDIQGSFNISGNLHINDTECLHVHCRGVETSLAECAFTKRRTELSNGLAGVVCYKQDADFPTSLSFQCVNGKHIPQEKACNGVNDCGDQSDELCCKGCRGNASLCKSGVCIPDQYKCNGEVDCITGEDESRCEEDRQQNIPKGLARSAQGEAEIETEETEMLTPGMDNERKRIKSLLPKLSCGVKRNTHTRRKRVIGGKPANVGDYPWQVAIKDGQRITCGGIYIGGCWILTAAHCVRPSRAHSYQVWTALLDWLKPNSQLGIQTVKRVIVHEKYNGATFQNDIALIEMKMHTGKKECELPNSVPACVPWSPYLFQPNDRCIISGWGRGKDNQKVYSLRWGEVDLIGNCSQFYPDRYYEKEMQCAGTRDGSIDACKGDSGGPLVCEDINNVTYVWGIVSWGENCGKPEFPGVYTRVANYFDWISYHVGRSLVSQHNV
cofactor assay with mouse plasma as source of CFI, human CFH and C3b [4]: mouse plasma CFI indeed can convert human C3b into iC3b in the presence of human CFH albeit with 10-times less activity
